Results from the supplement of paper PMC12764529.
± gives the half width of the 95% confidence interval.

Legend:
[1] = folding stability dG unfold from trypsin proteolysis; higher = more stable
How it was run: (§1)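 Mini-proteins designed to be under 80 residues and free of cysteine were carried in a PA-tagged cDNA display construct and digested with trypsin and with chymotrypsin. Each protease was applied at 11 threefold-diluted concentrations, alongside a no-protease condition, before sequencing. K50 came from Bayesian fitting of the sequencing counts, and unfolding free energy was obtained by comparing it with a sequence-predicted unfolded-state K50 and a shared folded-state K50, for each protease separately or for both together. Designs were retained only if their AlphaFold2 dimer inter-PAE exceeded 15.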

[2] = folding stability dG unfold from chymotrypsin proteolysis; higher = more stable
How it was run: as §1

[3] = folding stability dG unfold (combined trypsin and chymotrypsin); higher = more stable
How it was run: as §1

Sequence	folding stability dG unfold [1] [kcal/mol]	folding stability dG unfold [2] [kcal/mol]	folding stability dG unfold [3] [kcal/mol]
SAGGKTKEIELEILFEPVKVKKKKKNKNGKEEEVEEKEFKPVLVRITLKIENGKITEIKIEVEKLDDLSAGG [r13_935_TrROS_Hall]	2.05 ± 0.077	3.37 ± 0.11	2.93 ± 0.26
SAGGKTLTIEVNGKKYKITVEKNENGELTLTIYEYDKKTKKWKKIKTIKLKNMSLEEVLKLLKKLPPSAGGS [r16_378_TrROS_Hall]	4.09 ± 0.2	4.91 ± 0.19	4.58 ± 0.3
SAGGKTLYVVRITRRVRVDGKLYEVTLTLVAESEEEAEEALRKLAEELEALFPDEIRIEVEKVELPPSAGGS [r16_475_TrROS_Hall]	3.93 ± 0.13	5.7 ± 0.24	5.5 ± 0.25
SAGGKTVEVEFEAPESLSPEEIAAAILAAAPPGYFVKVEEVEVRDRPDGEKVILYKATFYDPDTGDFDSAGG [r13_12_TrMRF]	2.72 ± 0.081	2.804 ± 0.021	2.73 ± 0.048
SAGGKTVVIELDGARIEFNEDDGTITVWMPREELEALKAALPPGAEIVEVRERPDGWVQVTIRITPPSAGGS [r8_415_TrROS_Hall]	3.1 ± 0.14	4.21 ± 0.15	3.89 ± 0.1
SAGGKVEVELEDGKLRVKVFDKNGKLVEEVEVELKPVTIVIPGLSEEELQELKEKFPGAKITILEGQKSAGG [r13_235_TrROS_Hall]	1.73 ± 0.063	2.87 ± 0.08	2.39 ± 0.11
SAGGKVKALIIPAPDEPGKPVYLKIIHPDGEIVYPLPNDITEEEAKAAAIELGEENGLDLDEIEIAESAGGS [r16_753_TrMRF]	0.537 ± 0.032	0.893 ± 0.065	0.746 ± 0.099
SAGGKVKIIVFNKKTGEKIEIDLSKLKPGDIIKLPNGYYKIIDKKTKKIKVIKAKSIEELKKAIKKLSSAGG [r13_962_TrROS_Hall]	2.07 ± 0.15	2.21 ± 0.17	2.01 ± 0.33
SAGGKVKVKLSPEMIEALKKAGIKEGQKEVTIEVKLKDGSVYRVTITYDKKTNKITIKVEKVEKLPPSAGGS [r16_497_TrROS_Hall]	2.58 ± 0.16	4.16 ± 0.1	3.88 ± 0.32
SAGGKVKVTVTPDGTVTIEFEAESVEEAIKAAKAFLEEAGFEVESIPVEVPPDGTVKVTAKIKPKNASAGGS [r8_253_TrMRF]	1.33 ± 0.06	1.79 ± 0.11	1.67 ± 0.14
SAGGKVTLIEVEFEGGNPTISLTVTNADGSVEAVFVSPSPTDVLYATATLTVGGHPVVVVARASKDESAGGS [r16_672_TrMRF]	1.3 ± 0.094	2.11 ± 0.056	1.8 ± 0.12
SAGGKVTLRAPVVVPKDKIEDFIDALREALEALGLKEFKDIEIKEIIEGDDYYIIDFEVTAEADLPELASAG [r5_575_TrMRF]	2.65 ± 0.12	2.21 ± 0.036	2.32 ± 0.13
SAGGKVTVENDTLTIPFPDGFTVEITLPPNDKTAVITLHTPPNNPLALAAAKAIADSLPDYKVEVRDESAGG [r13_34_TrMRF]	0.662 ± 0.035	0.649 ± 0.06	0.704 ± 0.07
SAGGKVVTVEVELENGVRVTVEFVEEDGYLALKVTVEVRLPAPPVTTADGREKEVTRRLELVILLPKESAGG [r13_780_TrROS_Hall]	2.72 ± 0.14	3.17 ± 0.15	3.05 ± 0.13
SAGGKVYEFEIEVELLDPETGKPKKIKLKVPVFVDPKTGKVTKKVEAEPEPNVPKEEAEKIAKEIIEAESAG [r14_152_TrMRF]	-0.04 ± 0.38	1.71 ± 0.073	1.36 ± 0.31
SAGGKYGYKIEIEIAIFRIPPGAEVEPERIGNIEIYRIRFPDGNWLIMIRIKVKPMPPPPPEKKDNDDSAGG [r13_804_TrROS]	3.61 ± 0.22	4.7 ± 0.23	4.22 ± 0.34
SAGGKYKIEIEITEIKEKEDGTKEITIKIKIYDEETGELIYTITVKMRIDKKTNKIIIEEVKIEKLPPSAGG [r13_596_TrROS_Hall]	4.22 ± 0.29	6 ± 0.36	> 6
